Target: T1, 125I-TyrA14 human insulin (human, 125I on TyrA14 (specific activity 2200 Ci/mmol))
T1 construct: insulin A chain, human, cut product of proinsulin; insulin B chain, human, cut product of proinsulin; also called ^125I-HI; HI
Test: radioligand binding; saturation binding of the 125I-labelled ligand (0.05-5 nM) to isolated ectodomain-mCherry (300 ng/well) immobilised through its HisTag on 96-well plates by nickel-NTA iBodies with biotin on neutravidin; otherwise as the whole-cell assay; one-site specific binding fit
Details: both partners purified

Kd: 0.27 nM
B1: isolated ecto-IR-A Arg717Gln conjugated with mCherry (domain or fragment)
chain 1: HLYPGEVCPGMDIRNNLTRLHELENCSVIEGHLQILLMFKTRPEDFRDLSFPKLIMITDYLLLFRVYGLESLKDLFPNLTVIRGSRLFFNYALVIFEMVHLKELGLYNLMNITRGSVRIEKNNELCYLATIDWSRILDSVEDNYIVLNKDDNEECGDICPGTAKGKTNCPATVINGQFVERCWTHSHCQKVCPTICKSHGCTAEGLCCHSECLGNCSQPDDPTKCVACRNFYLDGRCVETCPPPYYHFQDWRCVNFSFCQDLHHKCKNSRRQGCHQYVIHNNKCIPECPSGYTMNSSNLLCTPCLGPCPKVCHLLEGEKTIDSVTSAQELRGCTVINGSLIINIRGGNNLAAELEANLGLIEEISGYLKIRRSYALVSLSFFRKLRLIRGETLEIGNYSFYALDNQNLRQLWDWSKHNLTITQGKLFFHYNPKLCLSEIHKMEEVSGTKGRQERNDIALKTNGDQASCENELLKFSYIRTSFDKILLRWEPYWPPDFRDLLGFMLFYKEAPYQNVTEFDGQDACGSNSWTVVDIDPPLRSNDPKSQNHPGWLMRGLKPWTQYAIFVKTLVTFSDERRTYGAKSDIIYVQTDATNPSVPLDPISVSNSSSQIILKWKPPSDPNGNITHYLVFWERQAEDSELFELDYCLKGLKLPSRTWSPPFESEDSQKHNQSEYEDSAGECCSCPKTDSQILKELEESSFRKTFEDYLHNVVFVPQPS
chain 2: SLGDVGNVTVAVPTVAAFPNTSSTSVPTSPEEHRPFEKVVNKESLVISGLRHFTGYRIELQACNQDTPEERCSVAAYVSARTMPEAKADDIVGPVTHEIFENNVVHLMWQEPKEPNGLIVLYEVSYRRYGDEELHLCVSRKHFALERGCRLRGLSPGNYSVRIRATSLAGNGSWTEPTYFYVTDYLDVPSNIAK
